The results in this text go back to patent publication US20220363623A1, “IMAGING AND THERAPEUTIC COMPOSITIONS” (priority 2019, published 2022).

The subject of data set [1] is LNCaP (human PSMA expressing prostate cancer cell line) tumour. On the set-up: species or system mice. As to conditions: mouse, in vivo. The procedure: (§1) PET-CT imaging and Biodistribution. Male Balb/c nude mice (age 8.5 weeks) or Male NSG mice (age 12 weeks) were inoculated subcutaneously on the right flank with 6×10^6 LNCap cells in PBS:Matrigel (1:1). Mice were weighed and tumours measured twice weekly using electronic callipers. Tumour volume (mm^3) was calculated as length×width×height×π/6. Mice were assigned for imaging and biodistribution studies (tumour volumes: 85-450 mm3). ^89Zr-DFOSq-PSMA tracers were then administered intravenously by tail vein injection to 6 mice. At 1, 2, 4 and 18 hr post injection three mice were anaesthetised using isoflurane and placed on the imaging bed of a G8 PET/CT scanner (Perkin Elmer). A CT scan was performed and followed immediately by a 10 min static PET scan. PET images were reconstructed using the maximal likelihood and expectation maximization (ML-EM) algorithm. PET Images were analysed using VivoQuant (Invicro) and Tumour SUVmax or Tumour SUVmax/background average (TBR) determined. After imaging at 18 hr mice were euthanised and selected tissues were excised, weighed and counted using a Capintec (Captus 4000e) gamma counter. A separate cohort of 3 mice was harvested at 1 hr post injection for biodistribution analysis as above. The data was analysed using GraphPad Prism 7 and differences between tracers analysed using a t-test.
(§2) ^89Zr Labelled tracers: The ^89Zr radiolabelled PSMA tracers were injected intravenously via tail vein to LNCaP (human PSMA expressing prostate cancer cell line) tumour bearing mice. At 1, 2, 4 and 18 h post-injection the mice were anaesthetised with isoflurane and imaged over 10 min. The representative PET images of mice injected with ^89Zr radiolabelled PSMA tracers at 1 and 18 hr are shown in FIG. 1 and quantitation of the Tumour SUVmax for each tracer is shown in FIG. 2a. […] There was a trend for higher tumour SUVmax for (4) tracer compared to all other tracers at all time points. […] A comparison of tumour uptake values is shown in FIG. 2b and the tissue biodistribution data for the tracers at 1 and 18 hr is summarised in FIG. 3.
(§3) ^68Ga Labelled tracers: Representative PET images of mice injected with ^68Ga(1) and ^68Ga(4) are shown in FIG. 4 and quantitation of the tumour SUVmax is shown in FIG. 5a. […] Tumour uptake of ^68Ga(4) was 1.6 and 1.8 fold higher than ^68Ga(1) at 1 and 2 hr p.i., respectively. This is consistent with the biodistribution results where tumour % ID/g for ^68Ga(4) was higher than ^68Ga(1) at 1 hr (10.8±1.3 vs 6.5±0.4) and at 2.5 hr (8.6±1.0 vs 4.1±0.5) p.i. […] (6.5±0.4% ID/g at 1 hr vs 4.1±0.5% ID/g at 2.5 hr). In contrast, there was no significant change in ^68Ga(4) tumour retention at 1 and 2.5 p.i. (10.8±1.3% ID/g vs […], FIG. 5b).

Another data set in a line: in vivo. As to conditions: male, mouse, total radioactivity. Also on record: species or system mice. The procedure:
as §1, §2, §3

The subject of data set [2] is LNCaP (human PSMA expressing prostate cancer cell line) tumour. The data set is described as follows: in vivo. On the set-up: species or system mice. As to conditions: mouse. The protocol:
as §1, §2, §3

The test system of data set [3] is AR42J (rat pancreatic cancer cell line) tumour. The data set is described as follows: in vivo. On the set-up: species or system mice. As to conditions: mouse. The procedure:
(§4) PET-CT imaging and Biodistribution of Octreotate/tide Tracers. Female Balb/c nude mice (age 9 weeks) were inoculated subcutaneously on the right flank with 3×10^6 AR42J cells in PBS:Matrigel (1:1). Mice were weighed and tumours measured twice weekly using electronic callipers. Tumour volume (mm^3) was calculated as length^2×width/2. 12 mice were assigned for imaging and biodistribution studies (tumour volumes: 170-550 mm^3). DFOSqTIDE (2.5 MBq) and DFOSqTATE (2.2 MBq) were administered intravenously by tail vein injection to mice on. At 1, 2, 4 and 18 hr post injection three mice were anaesthetised using isoflurane and placed on the imaging bed of a G8 PET/CT scanner (Perkin Elmer). A CT scan was performed which was immediately followed by a 10 min static PET scan. PET images were reconstructed using the maximal likelihood and expectation maximization (ML-EM) algorithm. PET images were analysed using VivoQuant (Invicro) and Tumour SUVmax, Tumour SUVmax/background average (TBR) and Tumour SUVmax/liver average (TLR) determined. After imaging at 18 hr mice were euthanised and selected tissues were excised, weighed and counted using a Capintec (Captus 4000e) gamma counter. A separate cohort of 3 mice was harvested at 1 hr post injection for biodistribution analysis. The data was analysed using GraphPad Prism 7 and differences between tracers analysed using a t-test.
AR42J (rat pancreatic cancer cell line) tumour bearing Balb/c nude mice as described above were injected intravenously via tail vein injection with ^89ZrDFOSqTATE or ^89ZrDFOSqTIDE (2-3 MBq). At 1, 2, 4 and 18 h post-injection the mice were anaesthetised with isoflurane and imaged over 10 min. At 1 hr after injection of DFOSqTIDE and DFOSqTATE, uptake into kidney, tumour and liver was observed. Representative PET images of mice injected with DFOSqTIDE and DFOSqTATE are shown in FIG. 12 and quantitation of the tumour SUVmax for each radiotracer is summarised in FIG. 13a.
^68GaDFOSq-TIDE and ^68GaDFOSq-TATE tracers were injected (2-3 MBq, 1 μg, 0.5 nmol) intravenously via tail vein to AR42J (rat pancreatic cancer cell line) tumour bearing Balb/c nude mice. PET images were acquired at 1 and 2 h post-injection (FIGS. 15a and b). […] Quantification of the uptake in the images using Standard Uptake Value (SUVmax=radioactivity in a tissue/injected activity/BW) confirms the higher uptake for ^68GaDFOSq-TATE (1 h; SUVmax 1.8±0.2, compared to 1.21±0.20, FIG. 15c). The higher tumor uptake of ^68GaDFOSqTATE was also associated with a higher degree of tumor retention at 2 h post injection with only a 5% reduction in SUVmax whereas the tumor SUVmax for ^68GaDFOSqTIDE reduced by 30% ^68GaDFOSqTATE at 2 h post injection. Both tracers clear rapidly from the blood and there is low uptake in bone consistent with stable gallium-68 complexes as well as low uptake in muscle. Both tracers have significant uptake in the kidneys and bladder.

Data set [4] has the same test system. The data set is described as follows: in vivo. Also on record: species or system mice. As to conditions: female, Balb/c nude, mouse, iv. The procedure: as §4, with “t-test. The high tumor uptake was confirmed by an ex vivo biodistribution study in the same mouse model where mice were injected with either ^68GaDFOSq-TIDE and ^68GaDFOSq-TATE (2-3 MBq, 1 μg, 0.5 nmol) and then euthanised at either 1 h or 2 h after administration. The amount of injected activity per gram of tissue (% IA/g) in the tumor and major organs was quantified (FIG. 16).” for “t-test.”

In a further data set the test system is LNCap cells. The experiment in a line: Cell binding and internalization studies in LNCap cells. Type of data set: cell-based, human. Particulars: 89Zr tracers, 60 min, 37° C. The protocol: Cell binding and internalization studies. LNCap cells (150,000/well) were plated in RPMI 1640 medium containing 10% FBS into wells of a 24 well plate pre-coated with 0.05% poly-L-lysine and incubated overnight at 37° C. and 5% CO2. The following day cells were washed twice with PBS and incubated for 1 hour at 37° C. in 1 mL per well internalisation buffer (MEM, 1% FBS). The buffer was then replaced with 1 ml per well of a warmed solution containing 0.5 μCi ^89Zr-DFOsq-PSMA tracers in internalisation buffer. Cells were incubated in triplicate for 5, 15, 30 or 60 min at 37° C. and 5% CO2. At each time point, cells were washed twice with ice-cold PBS and the washes collected for counting (unbound fraction). Cells were then incubated twice for 10 min in saline containing 10 μM PMPA and each wash collected for counting (surface bound fraction). The cells were then solubilised in 1 M NaOH (internalised fraction). Total protein content was determined in this fraction using a BCA protein assay kit (Pierce). A Perkin Elmer 2480 Wizard automatic gamma counter was then used to measure Zr-89 radioactivity in unbound, surface bound and internalised fractions. Surface bound and internalised fractions were expressed as percentage of total added radioactivity per mg of protein. Non-specific membrane binding and internalisation was determined by incubating cells with the ^89Zr-DFOSq-PSMA tracers in the presence of excess (10 μM) PMPA. ^89Zr-DFOSq-PSMA tracers uptake at 60 min was also determined in DU145 cells (seeded at 125,000 cells/well), a PSMA negative cell line. The raw data was analysed using GraphPad Prism 7.

The term tissue uptake denotes the share of the injected amount in each gram of the tissue.

The structures appear in SMILES notation. *1 amine or outer side, *2 acyl side, *3 side chain or, on linkers, in order; H or OH if unused. Where a SMILES comes first, the peptide text is derived from it. Bridges are numbered along the chain shown (N, C = ends). Side-chain parts run from the residue outwards. [ ]: non-standard residue; d: D form. The star is where a group is joined. X1 = O=C([C@@H](Cc1ccccc1)N(c1c(NCCCCCN(O)[*:3])c(=O)c1=O)[*:1])[*:2]; X2 = CC(=O)N(O)CCCCCNC(=O)CCC(=O)N(O)CCCCCN*; Thr(ol) = C[C@@H](O)[C@H](N)CO; Suc = O=C(CCC(=O)[*:2])[*:1]

With `CC(=O)N(O)CCCCCNC(=O)CCC(=O)N(O)CCCCCNC(=O)CCC(=O)N(O)CCCCCNc1c(NCc2ccc(C(=O)NCCCCC(NC(=O)NC(CCC(=O)O)C(=O)O)C(=O)O)cc2)c(=O)c1=O` (single isomer, unassigned) [^68Ga(1), metal not drawn], in data set [1], the “Gall bladder uptake in PET images” value was “high uptake”, the “Gut uptake in PET images” value is recorded as “high uptake”, the “Kidney uptake in PET images” value was “high uptake” and the “LNCap tumour uptake in PET images” value is listed as “moderate uptake”. In addition, in data set [1], the “Tumour SUVmax 1 h pi” value was determined as 1.0 ± 0.02 and the “Tumour SUVmax 2 h pi” value came out at 0.8 ± 0.05. For the same compound, the tissue uptake at 1 h in “in vivo” (Tumour Uptake % ID/g 1 h pi) is 6.5 ± 0.38 %ID/g. The tissue uptake at 2.5 h in “in vivo” (Tumour Uptake % ID/g 2.5 h pi) stood at 4.1 ± 0.51 %ID/g. Moreover, in data set [2], the “Tumour Uptake % ID/g 1 h pi” value is 6.5±0.4 % ID/g and the “Tumour Uptake % ID/g 2.5 h pi” value amounted to 4.1±0.5 % ID/g.

As to `CC(=O)N(O)CCCCCNC(=O)CCC(=O)N(O)CCCCCNC(=O)CCC(=O)N(O)CCCCCNc1c(N[C@H](Cc2ccccc2)C(=O)N[C@H]2CSSC[C@@H](C(=O)N[C@H](CO)[C@@H](C)O)NC(=O)[C@H]([C@@H](C)O)NC(=O)[C@H](CCCCN)NC(=O)[C@@H](Cc3c[nH]c4ccccc34)NC(=O)[C@H](Cc3ccc(O)cc3)NC2=O)c(=O)c1=O` (89Zr complex, metal not drawn) [^89ZrDFOSqTIDE] (H-[X1]([Suc-X2])CY[dW]KTC[Thr(ol)]; disulfide 2-7), in data set [3], the “Tumour SUVmax 1 h pi” value is listed as 1.1 ± 0.07, the “Tumour SUVmax 18 h pi” value is reported as 0.5 ± 0.01 and the “Tumour SUVmax Clearance %” value is listed as 55%. Moreover, in data set [4], the “Tumour Uptake % ID/g 1 h pi” value was found to be 3.4 ± 0.4 % ID/g and the “Tumour Uptake % ID/g 18 h pi” value is on record as 1.7 ± 0.1 % ID/g.

Regarding `CC(=O)N(O)CCCCCNC(=O)CCC(=O)N(O)CCCCCNC(=O)CCC(=O)N(O)CCCCCNc1c(NCCN(CCNC(=O)CCCC(=O)NCCCCC(NC(=O)NC(CCC(=O)O)C(=O)O)C(=O)O)CCNC(=O)CCCC(=O)NCCCCC(NC(=O)NC(CCC(=O)O)C(=O)O)C(=O)O)c(=O)c1=O` (single isomer, unassigned) [^89Zr(3), metal not drawn], in data set [1], the “Tumour SUVmax 1 h pi” value is reported as 1.7 ± 0.12, the “Tumour SUVmax 18 h pi” value turned out to be 0.6 ± 0.06 and the “Tumour SUVmax Clearance %” value was determined as 65%. The “Tumour Uptake % ID/g 1 h pi” value in data set [2] (male, iv, 1 h) was determined as 5.9 % ID/g. The “Tumour Uptake % ID/g 18 h pi” value in data set [2] (male, iv, 18 h) stood at 2.5 ± 0.22 % ID/g. In addition, in the data set with LNCap cells, the “Cell Uptake % AR/mg protein (60 min) Surface bound” value is 2.2 ± 0.14 % AR/mg protein and the “Cell Uptake % AR/mg protein (60 min) internalized” value came out at 3.8 ± 0.39 % AR/mg protein.

On to `CC(=O)N(O)CCCCCNC(=O)CCC(=O)N(O)CCCCCNC(=O)CCC(=O)N(O)CCCCCNc1c(N[C@H](Cc2ccccc2)C(=O)N[C@H]2CSSC[C@@H](C(=O)N[C@H](C(=O)O)[C@@H](C)O)NC(=O)[C@H]([C@@H](C)O)NC(=O)[C@H](CCCCN)NC(=O)[C@@H](Cc3c[nH]c4ccccc34)NC(=O)[C@H](Cc3ccc(O)cc3)NC2=O)c(=O)c1=O` (89Zr complex, metal not drawn) [^89ZrDFOSqTATE] (H-[X1]([Suc-X2])CY[dW]KTCT-OH; disulfide 2-7), for which, in data set [3], the “Tumour SUVmax 1 h pi” value came out at 3.1 ± 0.2, the “Tumour SUVmax 18 h pi” value is 1.3 ± 0.15 and the “Tumour SUVmax Clearance %” value worked out at 58%. In data set [4], the “Tumour Uptake % ID/g 1 h pi” value is listed as 10.4 ± 0.5 % ID/g and the “Tumour Uptake % ID/g 18 h pi” value is listed as 4.9 ± 0.8 % ID/g.
